Source: patent US9808503B2, “Allergen peptide fragments and use thereof for treatment of birch pollen allergies” (ANERGIS S.A., priority 2003, dated 2017)

What was measured:
IgE = assay: In vitro IgE binding, dot blot analysis; parameters: species or system human; conditions: 1 μg spotted; control and peptide groups; order: OPF90-134, then OPF1-60
Procedure: Immunoblotting and dot blot analysis: Anti-BV or -PLA2 immunoblots were processed as described in Kettner et al., Clin. Experiment. Allergy 29:394-401, 1999. For dot blot analysis, 1 μg of whole BV, PLA2, OPFs or human albumin was diluted ¼ in DMSO, spotted on PVDF membranes and dried for 30 min. at 37° C. After blocking in non-fat milk 5%, further steps were performed as described in Kettner et al., Clin. Experiment. Allergy 29:394-401 1999. Dot densities were analyzed by scanning densitometry using an Advanced American Biotechnology scanner, Fullerton, Calif.

[1] = test system: bee venom (BV) hypersensitive patients; assay: Intradermal (ID) skin tests; type: in vivo, human; conditions: for immediate allergic reaction to intradermal injection: representative patient of peptide group (FIG. 5), 1 μg/ml each OPF, 0.01 μg/ml native PLA2
Procedure: Skin testing: ID tests with BV, PLA2 and peptides were performed as described in Müller et al., Allergy 48(14):37-46, 1993. Concentrations tested ranged from 10^−3 μg/ml to 1 μg/ml (10-fold dilution series). […] The 0.1 μg/ml concentration was defined as the end-point concentration (EPC), as higher concentrations of BV and PLA2 may induce non specific toxic reactions. See Müller et al., J. Allergy Clin. Immunol. 96:395-402, 1995.

Substance	IgE binding to the peptide (order among the three OPFs) (IgE)	immediate allergic reaction to intradermal injection [1]	ID tests ([1]; day 0, all patients in OPF and control group)
OPF47-99: PLA2 fragment amino acid sequence (53 aa), internal overlapping peptide fragment of Apis mellifera PLA2 (KHGLTNTASHTRLSCDCDDKFYDCLKNSADTISSYFVGKMYFNLIDTKCYKLE)	undetectable	absence of immediate allergic reaction	–
phospholipase A2 [native PLA2, reference compound]	–	positive	positive
OPF1-60: PLA2 fragment amino acid sequence (60 aa), N-terminal overlapping peptide fragment of Apis mellifera PLA2 (IIYPGTLWCGHGNKSSGPNELGRFKHTDACCRTHDMCPDVMSAGESKHGLTNTASHTRLS)	–	absence of immediate allergic reaction	–
OPF90-134: PLA2 fragment amino acid sequence (45 aa), C-terminal overlapping peptide fragment of Apis mellifera PLA2 (LIDTKCYKLEHPVTGCGERTEGRCLHYTVDKSKPKVYQWFDLRKY)	higher level	absence of immediate allergic reaction	–
